# Test results reported in the supplement of paper PMC9170038.
# Test system: MS2 coat protein
# Assay: apparent KD of MS2 coat protein; designed switch direction (-1 OFF switch, 1 ON switch): 1; higher = weaker reporter binding
# In short: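 SNAP-549-labelled MS2 coat protein was titrated, doubling from 0.7 or 1.5 nM to 3 µM, over designed RNA switches transcribed on Illumina chips by stalled E. coli RNA polymerase. Runs were done without input, with 200 uM small-molecule ligand, or with an oligonucleotide input. Apparent KD is the per-design median over clusters of curve-fitted normalised fluorescence.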
# [1] = input ligand: microRNA oligo, concentration not stated
# [2] = Eterna round: R95, input ligand: FMN 200 uM
# [3] = Eterna round: R95, input ligand: microRNA oligo, concentration not stated
# [4] = Eterna round: R95, input ligand: none
Sequence,apparent KD of MS2 coat protein (input ligand: FMN 200 uM) [nM],apparent KD of MS2 coat protein [1] [nM],apparent KD of MS2 coat protein (input ligand: none) [nM],apparent KD of MS2 coat protein [2] [nM],apparent KD of MS2 coat protein [3] [nM],apparent KD of MS2 coat protein [4] [nM]
"UGUUGUUAAUUAGGAUAUGGUCACAUGAGGAUCACCCAUGUAAUGUCGAUGCUAUGUGGAUACGAUCAGAAGGAAUGGCUAACA [SameState NG2 #94] (Eterna round: R96, puzzle: Same State NG 2)",93.3,225,175,–,–,–
UUAAAACAUGAGGAUCACCCAUGUCAACAAAGUCGAGGAUAUGGGCAAUUAUUAUUAGAACCAGAAGGCGAAUAUU [Mat - Same State 1 - Mod of UCT - D28] (puzzle: Same State 1),–,–,–,27.1,260,289
UUAAGCAGCGGGCAGGAUAUGUAUUAAAAUACAUGAGGAUCACCCAUGUGCAGGUGUAACACCUGACAGAAGGGCCAAUCGGUGC [Soteed - 9] (puzzle: Same State 2),–,–,–,36.3,197,329
"UUAAUAAUGUAAGGAUAUACAUGAGGAUUUCUCGUAGAAGGUACAGGACAUGAGGAUCACCCAUGUAUCGCUCAGAAGAGCGUA [Mat - Same State NG 1 - JL mod - D24] (Eterna round: R96, puzzle: Same State NG 1)",1400,715,1750,–,–,–
"UUAAUAAUGUAAGGAUAUACAUGAGGAUUUCUCGUAGAAGGUACAGGACAUGAGGAUCACCCAUGUAUCGCUCCGUAGAGCGUA [Mat - Same State NG 1 - JL mod - D23] (Eterna round: R96, puzzle: Same State NG 1)",601,228,299,–,–,–
"UUAAUAAUGUAAGGAUAUACAUGAGGAUUUCUCGUAGAAGGUACAGGACAUGAGGAUCACCCAUGUAUCGCUCGAAAGAGCGUA [Mat - Same State NG 1 - JL mod - D25] (Eterna round: R96, puzzle: Same State NG 1)",521,217,1130,–,–,–
"UUAAUAAUGUUAGGAUAUACAUGAGGAAUCCUCGUAGAAGGAACAUGACAUGAGGAUCACCCAUGUAGCGCUCGAAAGAGCGCA [Mat - Same State NG 1 - JL mod - D48] (Eterna round: R96, puzzle: Same State NG 1)",25.6,16.3,417,–,–,–
"UUAAUGAAGUAAGGAUAUACAUGAGGAUCACUCGUAGAAGGUACUAUACAUGAGGAUCACCCAUGUUCCGGUCAGAAGACUGGA [Mat - Same State NG 1 - JL mod - D3] (Eterna round: R96, puzzle: Same State NG 1)",598,411,316,–,–,–
"UUAAUGAUGUAAGGAUAUACAUGAGGAAAUCUCGUAGAAGGUACAGGACAUGAGGAUCACCCAUGUGUCGCUCAGAAGAGCGUA [Mat - Same State NG 1 - JL mod - D18] (Eterna round: R96, puzzle: Same State NG 1)",86.3,39.6,71.2,–,–,–
"UUAAUUAAUUAAUUAUACAUGAGGAUCACCCAUGUAAGUGAUCAGGAUAUCAGCUCGUUUAGAGCUGAGAAGGGAUACAUGUAA [SSNG3/13-A3] (Eterna round: R96, puzzle: Same State NG 3)",111,139,214,–,–,–
"UUAAUUAUGUAAGGAUAUACAUGAGGAUUUCUCGUAGAAGGUACAUUACAUGAGGAUCACCCAUGUGGGUGUCAGAAGACGCCA [Mat - Same State NG 1 - JL mod - D12] (Eterna round: R96, puzzle: Same State NG 1)",269,210,404,–,–,–
"UUAAUUUACUGAGGAUAUCGUGUCGACUGAGUUGACAUGAGGAUCACCCAUGUGUGAAGUGGUAUCGAGAAGGCAGUUUUCUUA [JR_SSNG2_Sub026] (Eterna round: R96, puzzle: Same State NG 2)",19,76.9,122,–,–,–
"UUACAUGAGGAUCACCCAUGUCGCUGGUAAACUUCGAACCCGCAGGAUAUGUAUGCCACUUUACGACAGAAGGGCGGGUGCCUG [Eternabot solution 47] (Eterna round: R96, puzzle: Same State NG 3)",37.9,50.3,64.3,–,–,–
"UUACCGCGGGUAGGAUAUGGUCACACUUCUAAAACAUGAGGAUCACCCAUGUCCGACACAUAAAGCCAGAAGGACCCGCGGCUC [Esbea] (Eterna round: R96, puzzle: Same State NG 2)",20.8,48.5,71.4,–,–,–
